Data on six molecules can be found in publication PMC5557676, “Structural Characterization of Acidic M17 Leucine Aminopeptidases from the TriTryps and Evaluation of Their Role in Nutrient Starvation in Trypanosoma brucei” (mSphere, 2017).

Values joined by “and” are separate entries in the source; they are usually repeats but may differ in a detail not shown here. Equal entries are not always repeated.

Series [1] has as its target Leishmania major acidic M17 leucine aminopeptidase (LmLAP-A) (Leishmania major (Friedlin)). Description: SEC-MALS; SEC-MALLS on Superdex 200 10/300; 10 mM Tris pH 8.0, 200 mM NaCl, 1 mM DTT; 0.1, 0.5, 1.0 and 3.0 mg/ml (TbLAP-A also 5 mg/ml), incubated at least 3 h at room temperature.
Series [2] has the same target. Description: crystal structure; crystals grown at 20°C by sitting- and hanging-drop vapor diffusion; apo, holo (Mn2+) and inhibitor-bound forms; homohexamer in the crystal.
The target in series [3] is Trypanosoma brucei acidic M17 leucine aminopeptidase (TbLAP-A) (Trypanosoma brucei (Lister427)). Description: SEC-MALS; SEC-MALLS on Superdex 200 10/300; 10 mM Tris pH 8.0, 200 mM NaCl, 1 mM DTT; 0.1, 0.5, 1.0 and 3.0 mg/ml (TbLAP-A also 5 mg/ml), incubated at least 3 h at room temperature. A general note: SEC sorts molecules by how far they enter the pores of the column.

For series [4] the target is unchanged. The series is described as above. The source holds these as a separate data set.
Series [5] has the same target. Description: crystal structure; crystals grown at 20°C by sitting- and hanging-drop vapor diffusion; apo, holo (Mn2+) and inhibitor-bound forms; homohexamer in the crystal.
In series [6] the target is T1, TbLAP-A (Trypanosoma brucei, UniProt Q385B0).
T1 construct: gene Tb11.02.4440; full length, E. coli BL21(DE3); N-terminal His6 tag, HRV 3C-cleaved or with a noncleavable His tag; homohexamer; N-terminal domain aa 2-197, C-terminal domain aa 215-521
T1 sequence (Q385B0 1-521): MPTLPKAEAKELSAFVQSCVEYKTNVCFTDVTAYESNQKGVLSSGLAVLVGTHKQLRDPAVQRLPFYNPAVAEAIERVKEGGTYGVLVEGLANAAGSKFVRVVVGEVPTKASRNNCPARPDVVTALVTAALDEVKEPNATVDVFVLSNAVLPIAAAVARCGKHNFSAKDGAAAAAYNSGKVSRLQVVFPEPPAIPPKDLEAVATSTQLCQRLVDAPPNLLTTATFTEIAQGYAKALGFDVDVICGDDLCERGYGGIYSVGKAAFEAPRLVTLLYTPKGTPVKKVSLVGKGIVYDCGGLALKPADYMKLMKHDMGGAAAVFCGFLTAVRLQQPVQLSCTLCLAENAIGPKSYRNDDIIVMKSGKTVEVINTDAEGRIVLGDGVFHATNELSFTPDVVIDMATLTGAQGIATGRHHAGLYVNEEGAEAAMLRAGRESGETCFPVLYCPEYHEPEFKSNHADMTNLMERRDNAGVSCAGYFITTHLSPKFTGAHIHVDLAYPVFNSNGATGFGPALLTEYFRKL
Description: native gel zymography, AMC fluorescence. In kind it is biochemical. The following applies: 7.5 µM substrate, 50 mM Tris pH 8.0, 100 mM KCl, 1 mM MnCl2, 37 °C, 10 min.

Series [7] has as its target T1, TbLAP-A. Description: X-ray crystal structure. In kind it is binding. The following applies: Mn2+ in both metal sites, active site.
Series [8] deals with the molecule itself. Description: SEC-MALS; SEC-MALLS on Superdex 200 10/300; 10 mM Tris pH 8.0, 200 mM NaCl, 1 mM DTT; 0.1, 0.5, 1.0 and 3.0 mg/ml (TbLAP-A also 5 mg/ml), incubated at least 3 h at room temperature.
Series [9] concerns the molecule itself. Description: crystal structure; crystals grown at 20°C by sitting- and hanging-drop vapor diffusion; apo, holo (Mn2+) and inhibitor-bound forms; homohexamer in the crystal.

One may read the stoichiometry N as a count of units in the complex or per binding partner. On to “Leishmania major acidic M17 leucine aminopeptidase (LmLAP-A) (enzyme)”, for which the stoichiometry N was 6 and 3 in series [1]; 6 in series [2].

Take “Trypanosoma brucei acidic M17 leucine aminopeptidase (TbLAP-A) (enzyme)”: the stoichiometry N in series [3] stood at 3; in [4], 6; in series [5], 6.

`Cc1cc(=O)oc2cc(NC(=O)[C@@H](N)CC(C)C)ccc12` [Leu-AMC]: on TbLAP-A [6], the “native gel zymography, AMC fluorescence” value is recorded as “All three LAP-As were active against Leu-AMC”.

For `CCCCC[C@H](CC(=O)NO)C(=O)N[C@H](C(=O)N1CCC[C@H]1CO)C(C)C` [actinonin], the X-ray crystal structure entry at TbLAP-A [7] (less than full occupancy, six chains) is “The TbLAP-A--actinonin complex had six molecules in the asymmetric unit”.

Turning to `CC(C)C[C@H](NC(=O)[C@@H](O)[C@H](N)Cc1ccccc1)C(=O)O` [bestatin], the X-ray crystal structure result at TbLAP-A [7] (bicarbonate bound, 12 chains) is “TbLAP-A was cocrystallized with the inhibitor bestatin”.

B1: Trypanosoma cruzi acidic M17 leucine aminopeptidase (TcLAP-A) (enzyme)
chain: MNRPPATDSGASEFVRSCVNFKTNVEFTDVDAYKKTHTAGLASTFVVILGTHAQLREDALKELPFYCPAVAEAIQRVKKGETYAVLAEGVKNEANERFVRVLVGEVPSEASRTNCSARPDVVVSLLSAALEEIKGPETKVDVFVCSTAALAIAVAAARSAKRNFTAKEGLAARGYCDNCVRLTVVFPTAPNPSPSELVVVATSTQLCQRLVDAPTNLLNTATFAEVAQSYAKELGCAVDVICGEELRERGYGGIYSVGKCAAEAPRLVTLSYKPKDETRKKVALVGKGIVYDSGGLSLKPTNFMTGMKRDMGGAAAVFCGFLTAVRLQMPIELSCTLCLAENAIGPDAYRNDDILTLKSGKTVEVNNTDAEGRLVLGDGVFHATHEISFKPDVLVDMATLTGAQGIATGHRHAGIFVNDEEEELSFLKAGRVSGETCFPVLYCPEYHVTEFRSPVADMRNSVKQVNNASVSCAGHFVANHLSPDFKGKHIHVDMAFPAFENDKATGFGPALLMEYLRNLR
Consider B1, for which the entries for the “stoichiometry N” value in series [8] and in series [9] were 3 and 6, respectively.
